Source: US20190241648A1 (STATEN BIOTECHNOLOGY B V, published 2019)
Ends that are not written are not given here.

Experiments:
Assay in all cases: cyclic peptide substitution array
ApoC3 peptide D66W = biological target: T1, ApoC3 peptide D66W (human, cyclic (thioether))
T1 peptide: DKFSEFWWLDPEV
Procedure, shortened: (§1)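 Peptide microarrays incubated with antibody samples, then stained with goat anti-human IgG (Fc) DyLight680 and anti-HA DyLight800 control antibodies, scanned at intensity 7/7 (red/green). Secondary-only pre-stain checked background binding; framing HA peptides served as quality control; substitution effects read as changes in spot intensity.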

ApoC3 peptide V71E = biological target: T2, ApoC3 peptide V71E (human, thioether (positions not given here); also: cyclic (thioether), ring places not given here)
T2 peptide: DKFSEFWDLDPEE
Procedure, shortened: as §1

ApoC3 peptide F61P = biological target: T3, ApoC3 peptide F61P (human, cyclic (thioether))
T3 peptide: DKPSEFWDLDPEV
Procedure, shortened: as §1

ApoC3 peptide W65A = biological target: T4, ApoC3 peptide W65A (human, not fully specified; cyclic (thioether))
T4 peptide: DKFSEFADLDPEV
Procedure, shortened: as §1

ApoC3 peptide K60D = biological target: T5, ApoC3 peptide K60D (human, thioether (positions not given here); not fully specified (bridges); also: cyclic (thioether), positions not given here)
T5 peptide: DDFSEFWDLDPEV
Procedure, shortened: as §1

ApoC3 peptide E63I = biological target: T6, ApoC3 peptide E63I (human, cyclic (thioether))
T6 peptide: DKFSIFWDLDPEV
Procedure, shortened: as §1

ApoC3 peptide L67H = biological target: T7, ApoC3 peptide L67H (human, thioether (positions not given here); not fully specified (bridges); also: thioether between a C-terminal Cys side chain and a modified N-terminus, the Cys is not in the chain)
T7 peptide: DKFSEFWDHDPEV
Procedure, shortened: as §1

ApoC3 peptide D68G = biological target: T8, ApoC3 peptide D68G (human, cyclic (thioether))
T8 peptide: DKFSEFWDLGPEV
Procedure, shortened: as §1

ApoC3 peptide V71H = biological target: T9, ApoC3 peptide V71H (human, thioether (positions not given here); also: cyclic (thioether), ring places not given here)
T9 peptide: DKFSEFWDLDPEH
Procedure, shortened: as §1

ApoC3 peptide L67Q = biological target: T10, ApoC3 peptide L67Q (human, thioether (positions not given here); not fully specified (bridges); also: thioether between a C-terminal Cys side chain and a modified N-terminus, the Cys is not in the chain)
T10 peptide: DKFSEFWDQDPEV
Procedure, shortened: as §1

ApoC3 peptide D59G = biological target: T11, ApoC3 peptide D59G (human, thioether (positions not given here); not fully specified (C-terminus, bridges))
T11 peptide: GKFSEFWDLDPEV
Procedure, shortened: as §1

ApoC3 peptide L67R = biological target: T12, ApoC3 peptide L67R (human, thioether (positions not given here); not fully specified (bridges); also: thioether between a C-terminal Cys side chain and a modified N-terminus, the Cys is not in the chain)
T12 peptide: DKFSEFWDRDPEV
Procedure, shortened: as §1

ApoC3 peptide W65S = biological target: T13, ApoC3 peptide W65S (human, cyclic (thioether))
T13 peptide: DKFSEFSDLDPEV
Procedure, shortened: as §1

ApoC3 peptide D66L = biological target: T14, ApoC3 peptide D66L (human, not fully specified; cyclic (thioether))
T14 peptide: DKFSEFWLLDPEV
Procedure, shortened: as §1

ApoC3 peptide S62F = biological target: T15, ApoC3 peptide S62F (human, not fully specified; cyclic (thioether))
T15 peptide: DKFFEFWDLDPEV
Procedure, shortened: as §1

ApoC3 peptide F61Y = biological target: T16, ApoC3 peptide F61Y (human, cyclic (thioether))
T16 peptide: DKYSEFWDLDPEV
Procedure, shortened: as §1

ApoC3 peptide E70D = biological target: T17, ApoC3 peptide E70D (human, cyclic (thioether))
T17 peptide: DKFSEFWDLDPDV
Procedure, shortened: as §1

ApoC3 peptide D59A = biological target: T18, ApoC3 peptide D59A (human, thioether (positions not given here); not fully specified (C-terminus, bridges))
T18 peptide: AKFSEFWDLDPEV
Procedure, shortened: as §1

ApoC3 peptide P69C = biological target: T19, ApoC3 peptide P69C (human, thioether (positions not given here); not fully specified (bridges); also: thioether from modified N-terminus to C-terminal Cys (Cys not in chain))
T19 peptide: DKFSEFWDLDCEV
Procedure, shortened: as §1

ApoC3 peptide E63Q = biological target: T20, ApoC3 peptide E63Q (human, cyclic (thioether))
T20 peptide: DKFSQFWDLDPEV
Procedure, shortened: as §1

ApoC3 peptide S62Q = biological target: T21, ApoC3 peptide S62Q (human, thioether (positions not given here); also: cyclic (thioether), ring places not given here)
T21 peptide: DKFQEFWDLDPEV
Procedure, shortened: as §1

ApoC3 peptide E70G = biological target: T22, ApoC3 peptide E70G (human, cyclic (thioether))
T22 peptide: DKFSEFWDLDPGV
Procedure, shortened: as §1

ApoC3 peptide P69A = biological target: T23, ApoC3 peptide P69A (human, thioether (positions not given here); not fully specified (bridges); also: thioether from modified N-terminus to C-terminal Cys (Cys not in chain))
T23 peptide: DKFSEFWDLDAEV
Procedure, shortened: as §1

ApoC3 peptide S62E = biological target: T24, ApoC3 peptide S62E (human, not fully specified; cyclic (thioether))
T24 peptide: DKFEEFWDLDPEV
Procedure, shortened: as §1

ApoC3 peptide S62P = biological target: T25, ApoC3 peptide S62P (human, thioether (positions not given here); also: cyclic (thioether), ring places not given here)
T25 peptide: DKFPEFWDLDPEV
Procedure, shortened: as §1

ApoC3 peptide S62W = biological target: T26, ApoC3 peptide S62W (human, thioether (positions not given here); also: cyclic (thioether), ring places not given here)
T26 peptide: DKFWEFWDLDPEV
Procedure, shortened: as §1

ApoC3 peptide W65Y = biological target: T27, ApoC3 peptide W65Y (human, cyclic (thioether))
T27 peptide: DKFSEFYDLDPEV
Procedure, shortened: as §1

ApoC3 peptide E70P = biological target: T28, ApoC3 peptide E70P (human, cyclic (thioether))
T28 peptide: DKFSEFWDLDPPV
Procedure, shortened: as §1

ApoC3 peptide P69Y = biological target: T29, ApoC3 peptide P69Y (human, not fully specified; cyclic (thioether))
T29 peptide: DKFSEFWDLDYEV
Procedure, shortened: as §1

% of binding to wild-type peptide (ApoC3 peptide D66W): 0% | % of binding to wild-type peptide (ApoC3 peptide V71E): 127% | % of binding to wild-type peptide (ApoC3 peptide F61P): 52.7% | % of binding to wild-type peptide (ApoC3 peptide W65A): 0% | % of binding to wild-type peptide (ApoC3 peptide K60D): 200% | % of binding to wild-type peptide (ApoC3 peptide E63I): 0% | % of binding to wild-type peptide (ApoC3 peptide L67H): 3.58% | % of binding to wild-type peptide (ApoC3 peptide D68G): 3.59% | % of binding to wild-type peptide (ApoC3 peptide V71H): 72.8% | % of binding to wild-type peptide (ApoC3 peptide L67Q): 3.99% | % of binding to wild-type peptide (ApoC3 peptide D59G): 60.3% | % of binding to wild-type peptide (ApoC3 peptide L67R): 15.4% | % of binding to wild-type peptide (ApoC3 peptide W65S): 0% | % of binding to wild-type peptide (ApoC3 peptide D66L): 0% | % of binding to wild-type peptide (ApoC3 peptide S62F): 1.25% | % of binding to wild-type peptide (ApoC3 peptide F61Y): 126% | % of binding to wild-type peptide (ApoC3 peptide E70D): 82.9% | % of binding to wild-type peptide (ApoC3 peptide D59A): 44.4% | % of binding to wild-type peptide (ApoC3 peptide P69C): 3.72% | % of binding to wild-type peptide (ApoC3 peptide E63Q): 32.4% | % of binding to wild-type peptide (ApoC3 peptide S62Q): 1.13% | % of binding to wild-type peptide (ApoC3 peptide E70G): 46.1% | % of binding to wild-type peptide (ApoC3 peptide P69A): 25.7% | % of binding to wild-type peptide (ApoC3 peptide S62E): 0% | % of binding to wild-type peptide (ApoC3 peptide S62P): 0% | % of binding to wild-type peptide (ApoC3 peptide S62W): 0% | % of binding to wild-type peptide (ApoC3 peptide W65Y): 0% | % of binding to wild-type peptide (ApoC3 peptide E70P): 55.2% | % of binding to wild-type peptide (ApoC3 peptide P69Y): 15.4%
B1: Llama antibody 5E5 (antibody, V domains shown)
VH: QLQLVESGGGLVQPGGSLRLSCAASGFTFGTYSMRWVRQVPRKALEWVSSISTDGGGTAYRDSVKGRFTISRDNAKNTLYLQMNNLKPEDTAIYYCVIAGYSDWGQGTQVTVSS
VL: ATMLTQSPGSLSVVPGESASISCKTSQGLVHSDGKTYFYWFLQKPGQSPQQLIYQVSNRASGVPDRFTGSGSGTDFTLKISGVKAEDAGVYYCAQGTYYPHTFGSGTRLEIK
notes: detected with goat anti-human IgG (Fc); also called mAb 5E5
